These are literature values, as cited in article PMC4753134.

Broadly, the pKd is the Kd on a negative log10 scale, so that one unit is a factor of ten.

pKd: −log10 of the molar value.

One series has as its target EGFR (Homo sapiens) (UniProt P00533).
A further series has as its target Met (Homo sapiens) (UniProt P08581).
Sequence of UniProt P08581 (P08581 25-932): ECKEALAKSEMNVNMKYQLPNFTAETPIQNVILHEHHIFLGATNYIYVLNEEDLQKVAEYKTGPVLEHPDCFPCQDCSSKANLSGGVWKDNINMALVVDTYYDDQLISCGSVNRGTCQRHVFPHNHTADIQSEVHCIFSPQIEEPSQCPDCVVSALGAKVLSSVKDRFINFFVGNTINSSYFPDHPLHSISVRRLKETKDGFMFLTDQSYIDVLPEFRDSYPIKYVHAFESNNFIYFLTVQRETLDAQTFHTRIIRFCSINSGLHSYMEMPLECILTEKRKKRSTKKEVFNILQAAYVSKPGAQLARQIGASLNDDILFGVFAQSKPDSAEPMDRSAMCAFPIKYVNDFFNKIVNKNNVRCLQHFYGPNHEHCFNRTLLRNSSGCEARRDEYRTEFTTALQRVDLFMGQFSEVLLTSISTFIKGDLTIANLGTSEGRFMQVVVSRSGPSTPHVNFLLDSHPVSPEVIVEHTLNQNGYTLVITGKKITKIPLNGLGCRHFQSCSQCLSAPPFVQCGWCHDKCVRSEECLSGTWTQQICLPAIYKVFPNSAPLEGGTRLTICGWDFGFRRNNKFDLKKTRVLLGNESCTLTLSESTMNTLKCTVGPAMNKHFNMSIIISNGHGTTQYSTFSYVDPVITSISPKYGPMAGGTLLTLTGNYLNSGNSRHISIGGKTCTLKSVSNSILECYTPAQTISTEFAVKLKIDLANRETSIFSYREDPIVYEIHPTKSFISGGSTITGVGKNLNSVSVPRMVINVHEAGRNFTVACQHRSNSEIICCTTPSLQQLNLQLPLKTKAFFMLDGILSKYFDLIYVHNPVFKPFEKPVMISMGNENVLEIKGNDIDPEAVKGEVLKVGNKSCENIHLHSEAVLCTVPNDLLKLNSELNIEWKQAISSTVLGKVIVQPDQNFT

Consider decorin (from UniProt P07585), for which the pKd is 7.06 with EGFR (Homo sapiens) and 8.70 with Met (Homo sapiens).
